From US20200179497A1
Like-named read-outs stand apart in the source and are kept apart here.

How the values were obtained:
Assay in all cases: cell-based or functional assay
[1] = molecular target: IVIg (Octagam)
[2] = molecular target: IVIg (Octagam); remark: listed apart in the source
[3] = molecular target: denosumab (XGEVA)
[4] = molecular target: adalimumab (Humira)

| Substance | Conc. of enzyme, 1st IgG heavy chain, IgG to scIgG (gel) [1] | Conc. of enzyme, 2nd IgG heavy chain, scIgG to F(ab')2 (gel) [1] | Conc. of enzyme, 2nd IgG heavy chain, scIgG to F(ab')2 (gel) [2] | enzyme concentration giving a dominating scIgG band on SDS-PAGE [2] | enzyme concentration giving mainly scIgG on SDS-PAGE [2] | enzyme concentration giving a dominating F(ab')2 band on SDS-PAGE [3] | enzyme concentration giving a single intense scIgG band on SDS-PAGE ([3]; scale: pig/ml) | enzyme concentration giving equal cleavage on SDS-PAGE [4] |
| --- | --- | --- | --- | --- | --- | --- | --- | --- |
| BX1001865 (IdeS lacking tag, produced to GMP standard) (enzyme) | 1900 ng/mL | 7500 ng/mL | 6000 ng/mL | 1.9 ng/mL | 1.9 ng/mL |  |  |  |
| pCART124 (IdeS with additional N terminal methionine and histidine tag) (enzyme) | 1900 ng/mL | 7500 ng/mL | 6000 ng/mL | 1.9 ng/mL |  |  |  |  |
| pCART144 (IdeZ with additional N terminal methionine and histidine tag) (enzyme) |  |  |  |  |  | 3.3 µg/mL | 0.12 | 4.6 ng/mL |
